This test addresses α-synuclein (UniProt P37840 1-140). The test can be described thus: cell-based or functional assay.

Non-standard residues stand in square brackets, D forms with d.
Note: test concentration or dose not given here.

B1: ZP-0194 (peptide)
peptide: Ac-[dH][dH][dT][dT][dV][dY]-NH2
SMILES: CC(=O)N[C@H](Cc1c[nH]cn1)C(=O)N[C@H](Cc1c[nH]cn1)C(=O)N[C@@H](C(=O)N[C@@H](C(=O)N[C@@H](C(=O)N[C@H](Cc1ccc(O)cc1)C(N)=O)C(C)C)[C@H](C)O)[C@H](C)O
Turning to B1, the “% decrease in ThT fluorescence” value came to 11.6%, the “% decrease in rate of aggregation” value was 7.7% and the “% increase in Lag phase” value was determined as 38.8%.

B2: ZP-0213 (peptide)
peptide: Ac-[dE][dK][dY][dS][dV][dL][dI]-NH2
SMILES: CC[C@@H](C)[C@@H](NC(=O)[C@@H](CC(C)C)NC(=O)[C@H](NC(=O)[C@@H](CO)NC(=O)[C@@H](Cc1ccc(O)cc1)NC(=O)[C@@H](CCCCN)NC(=O)[C@@H](CCC(=O)O)NC(C)=O)C(C)C)C(N)=O
For the molecule B2, the “% decrease in ThT fluorescence” value worked out at 25.6%, the “% decrease in rate of aggregation” value was found to be 12.9% and the “% increase in Lag phase” value was determined as 29.4%.

B3: ZP-0179 (peptide)
peptide: Ac-[dH][dH][dT][dI][dV][dK]-NH2
SMILES: CC[C@@H](C)[C@@H](NC(=O)[C@H](NC(=O)[C@@H](Cc1c[nH]cn1)NC(=O)[C@@H](Cc1c[nH]cn1)NC(C)=O)[C@H](C)O)C(=O)N[C@@H](C(=O)N[C@H](CCCCN)C(N)=O)C(C)C
For the molecule B3, the “% decrease in ThT fluorescence” value amounted to 0.6%, the “% decrease in rate of aggregation” value is -0.6% and the “% increase in Lag phase” value was 30.4%.

B4: ZP-0205 (peptide)
peptide: Ac-[dQ][dY][dS][dP][dL][dI]-NH2
SMILES: CC[C@@H](C)[C@@H](NC(=O)[C@@H](CC(C)C)NC(=O)[C@H]1CCCN1C(=O)[C@@H](CO)NC(=O)[C@@H](Cc1ccc(O)cc1)NC(=O)[C@@H](CCC(N)=O)NC(C)=O)C(N)=O
As for B4, the “% decrease in ThT fluorescence” value was determined as 16.6%, the “% decrease in rate of aggregation” value is -11.9% and the “% increase in Lag phase” value was 30.6%.

B5: ZP-0215 (peptide)
peptide: H-[dQ][dY][dS][dV][dL][dI]-NH2
SMILES: CC[C@@H](C)[C@@H](NC(=O)[C@@H](CC(C)C)NC(=O)[C@H](NC(=O)[C@@H](CO)NC(=O)[C@@H](Cc1ccc(O)cc1)NC(=O)[C@H](N)CCC(N)=O)C(C)C)C(N)=O
On to B5, for which the “% decrease in ThT fluorescence” value stood at 27.6%, the “% decrease in rate of aggregation” value turned out to be 17.5% and the “% increase in Lag phase” value is 3.1%.

B6: ZP-0160 (peptide)
peptide: Ac-[dH][dH][dV][dL][dV][dA]-NH2
SMILES: CC(=O)N[C@H](Cc1c[nH]cn1)C(=O)N[C@H](Cc1c[nH]cn1)C(=O)N[C@@H](C(=O)N[C@H](CC(C)C)C(=O)N[C@@H](C(=O)N[C@H](C)C(N)=O)C(C)C)C(C)C
As to B6, the “% decrease in ThT fluorescence” value was found to be 8.8%, the “% decrease in rate of aggregation” value turned out to be 10.5% and the “% increase in Lag phase” value is 36.5%.

B7: ZP-0221 (peptide)
peptide: H-[dQ][dY][dT][dV][dL][dI]-NH2
SMILES: CC[C@@H](C)[C@@H](NC(=O)[C@@H](CC(C)C)NC(=O)[C@H](NC(=O)[C@H](NC(=O)[C@@H](Cc1ccc(O)cc1)NC(=O)[C@H](N)CCC(N)=O)[C@H](C)O)C(C)C)C(N)=O
As for B7, the “% decrease in ThT fluorescence” value stood at 24.7%, the “% decrease in rate of aggregation” value was 22.8% and the “% increase in Lag phase” value was -22.4%.

B8: ZP-0206 (peptide)
peptide: Ac-[dQ][dY][dP][dV][dL][dI]-NH2
SMILES: CC[C@@H](C)[C@@H](NC(=O)[C@@H](CC(C)C)NC(=O)[C@H](NC(=O)[C@H]1CCCN1C(=O)[C@@H](Cc1ccc(O)cc1)NC(=O)[C@@H](CCC(N)=O)NC(C)=O)C(C)C)C(N)=O
As for B8, the “% decrease in ThT fluorescence” value was 3.3%, the “% decrease in rate of aggregation” value stood at 8.4% and the “% increase in Lag phase” value amounted to 25.9%.

B9: ZP-0222 (peptide)
peptide: H-[dQ][dY][dK][dV][dL][dI]-NH2
SMILES: CC[C@@H](C)[C@@H](NC(=O)[C@@H](CC(C)C)NC(=O)[C@H](NC(=O)[C@@H](CCCCN)NC(=O)[C@@H](Cc1ccc(O)cc1)NC(=O)[C@H](N)CCC(N)=O)C(C)C)C(N)=O
For B9, the “% decrease in ThT fluorescence” value worked out at 42.3%, the “% decrease in rate of aggregation” value came to 34.3% and the “% increase in Lag phase” value was found to be 7.7%.

B10: ZP-0204 (peptide)
peptide: Ac-[dQ][dY][dS][dV][dP][dI]-NH2
SMILES: CC[C@@H](C)[C@@H](NC(=O)[C@H]1CCCN1C(=O)[C@H](NC(=O)[C@@H](CO)NC(=O)[C@@H](Cc1ccc(O)cc1)NC(=O)[C@@H](CCC(N)=O)NC(C)=O)C(C)C)C(N)=O
Turning to B10, the “% decrease in ThT fluorescence” value amounted to 1.4%, the “% decrease in rate of aggregation” value was -5.6% and the “% increase in Lag phase” value amounted to 23.6%.

B11: ZP-0193 (peptide)
peptide: Ac-[dH][dH][dT][dE][dV][dY]-NH2
SMILES: CC(=O)N[C@H](Cc1c[nH]cn1)C(=O)N[C@H](Cc1c[nH]cn1)C(=O)N[C@@H](C(=O)N[C@H](CCC(=O)O)C(=O)N[C@@H](C(=O)N[C@H](Cc1ccc(O)cc1)C(N)=O)C(C)C)[C@H](C)O
B11: the “% decrease in ThT fluorescence” value came out at 8.7%, the “% decrease in rate of aggregation” value is -15.8% and the “% increase in Lag phase” value was 31.4%.

B12: ZP-0175 (peptide)
peptide: Ac-[dH][dH][dT][dI][dV][dV]-NH2
SMILES: CC[C@@H](C)[C@@H](NC(=O)[C@H](NC(=O)[C@@H](Cc1c[nH]cn1)NC(=O)[C@@H](Cc1c[nH]cn1)NC(C)=O)[C@H](C)O)C(=O)N[C@@H](C(=O)N[C@@H](C(N)=O)C(C)C)C(C)C
In the case of B12, the “% decrease in ThT fluorescence” value stood at 21.9%, the “% decrease in rate of aggregation” value was found to be 16.8% and the “% increase in Lag phase” value was determined as 89.7%.

B13: ZP-0159 (peptide)
peptide: Ac-[dH][dH][dV][dV][dV][dA]-NH2
SMILES: CC(=O)N[C@H](Cc1c[nH]cn1)C(=O)N[C@H](Cc1c[nH]cn1)C(=O)N[C@@H](C(=O)N[C@@H](C(=O)N[C@@H](C(=O)N[C@H](C)C(N)=O)C(C)C)C(C)C)C(C)C
As to B13, the “% decrease in ThT fluorescence” value amounted to 19.8%, the “% decrease in rate of aggregation” value is 18.6% and the “% increase in Lag phase” value stood at 36.6%.

B14: ZP-0207 (peptide)
peptide: Ac-[dQ][dP][dS][dV][dL][dI]-NH2
SMILES: CC[C@@H](C)[C@@H](NC(=O)[C@@H](CC(C)C)NC(=O)[C@H](NC(=O)[C@@H](CO)NC(=O)[C@H]1CCCN1C(=O)[C@@H](CCC(N)=O)NC(C)=O)C(C)C)C(N)=O
On to B14, for which the “% decrease in ThT fluorescence” value worked out at 5.5%, the “% decrease in rate of aggregation” value is 3.6% and the “% increase in Lag phase” value was found to be 29.7%.

B15: ZP-0214 (peptide)
peptide: Ac-[dD][dR][dY][dS][dV][dL][dI]-NH2
SMILES: CC[C@@H](C)[C@@H](NC(=O)[C@@H](CC(C)C)NC(=O)[C@H](NC(=O)[C@@H](CO)NC(=O)[C@@H](Cc1ccc(O)cc1)NC(=O)[C@@H](CCCNC(=N)N)NC(=O)[C@@H](CC(=O)O)NC(C)=O)C(C)C)C(N)=O
On to B15, for which the “% decrease in ThT fluorescence” value is 20.4%, the “% decrease in rate of aggregation” value is 4.8% and the “% increase in Lag phase” value was -12.6%.

B16: ZP-0181 (peptide)
peptide: Ac-[dH][dH][dT][dL][dV][dA]-NH2
SMILES: CC(=O)N[C@H](Cc1c[nH]cn1)C(=O)N[C@H](Cc1c[nH]cn1)C(=O)N[C@@H](C(=O)N[C@H](CC(C)C)C(=O)N[C@@H](C(=O)N[C@H](C)C(N)=O)C(C)C)[C@H](C)O
Regarding B16, the “% decrease in ThT fluorescence” value is 22.8%, the “% decrease in rate of aggregation” value was -1.2% and the “% increase in Lag phase” value stood at 29.4%.

B17: ZP-0186 (peptide)
peptide: Ac-[dH][dH][dT][dL][dV][dV]-NH2
SMILES: CC(=O)N[C@H](Cc1c[nH]cn1)C(=O)N[C@H](Cc1c[nH]cn1)C(=O)N[C@@H](C(=O)N[C@H](CC(C)C)C(=O)N[C@@H](C(=O)N[C@@H](C(N)=O)C(C)C)C(C)C)[C@H](C)O
As for B17, the “% decrease in ThT fluorescence” value worked out at 30.7%, the “% decrease in rate of aggregation” value was 29.7% and the “% increase in Lag phase” value came to 16.1%.

B18: ZP-0202 (peptide)
peptide: Ac-[dQ][dY][dK][dV][dL][dI]-NH2
SMILES: CC[C@@H](C)[C@@H](NC(=O)[C@@H](CC(C)C)NC(=O)[C@H](NC(=O)[C@@H](CCCCN)NC(=O)[C@@H](Cc1ccc(O)cc1)NC(=O)[C@@H](CCC(N)=O)NC(C)=O)C(C)C)C(N)=O
On to B18, for which the “% decrease in ThT fluorescence” value was 53.5%, the “% decrease in rate of aggregation” value turned out to be 54.5% and the “% increase in Lag phase” value is -28.8%.

B19: ZP-0180 (peptide)
peptide: Ac-[dH][dH][dT][dV][dV][dA]-NH2
SMILES: CC(=O)N[C@H](Cc1c[nH]cn1)C(=O)N[C@H](Cc1c[nH]cn1)C(=O)N[C@@H](C(=O)N[C@@H](C(=O)N[C@@H](C(=O)N[C@H](C)C(N)=O)C(C)C)C(C)C)[C@H](C)O
Take B19: the “% decrease in ThT fluorescence” value was determined as 19.8%, the “% decrease in rate of aggregation” value worked out at 18.4% and the “% increase in Lag phase” value amounted to 30.3%.

B20: ZP-0212 (peptide)
peptide: Ac-[dR][dY][dS][dV][dL][dI]-NH2
SMILES: CC[C@@H](C)[C@@H](NC(=O)[C@@H](CC(C)C)NC(=O)[C@H](NC(=O)[C@@H](CO)NC(=O)[C@@H](Cc1ccc(O)cc1)NC(=O)[C@@H](CCCNC(=N)N)NC(C)=O)C(C)C)C(N)=O
As for B20, the “% decrease in ThT fluorescence” value was 51.1%, the “% decrease in rate of aggregation” value turned out to be 44.9% and the “% increase in Lag phase” value is -14.4%.

For the origin of these results see US8290713 (LONZA BIOLOGICS, dated 2012).
